Laboratory results reported in patent US10125358B2, “Methods and compounds for increasing threonyl-tRNA synthetase activity” (UNIVERSITY OF VERMONT AND STATE AGRICULTURAL COLLEGE, priority 2012, dated 2018).
“Also recorded” adds a separate entry of the source.

Tests used:
TARS [1] = target: T1, TARS (Homo sapiens, UniProt P26639); assay: GTPase (GTP hydrolysis) assay; type: biochemical; set-up: His6 (N); made in house; host or cells: E. coli Rosetta 2 (DE3)pLysS, plasmid pET28a hctThrRS
T1 sequence (P26639 1-723): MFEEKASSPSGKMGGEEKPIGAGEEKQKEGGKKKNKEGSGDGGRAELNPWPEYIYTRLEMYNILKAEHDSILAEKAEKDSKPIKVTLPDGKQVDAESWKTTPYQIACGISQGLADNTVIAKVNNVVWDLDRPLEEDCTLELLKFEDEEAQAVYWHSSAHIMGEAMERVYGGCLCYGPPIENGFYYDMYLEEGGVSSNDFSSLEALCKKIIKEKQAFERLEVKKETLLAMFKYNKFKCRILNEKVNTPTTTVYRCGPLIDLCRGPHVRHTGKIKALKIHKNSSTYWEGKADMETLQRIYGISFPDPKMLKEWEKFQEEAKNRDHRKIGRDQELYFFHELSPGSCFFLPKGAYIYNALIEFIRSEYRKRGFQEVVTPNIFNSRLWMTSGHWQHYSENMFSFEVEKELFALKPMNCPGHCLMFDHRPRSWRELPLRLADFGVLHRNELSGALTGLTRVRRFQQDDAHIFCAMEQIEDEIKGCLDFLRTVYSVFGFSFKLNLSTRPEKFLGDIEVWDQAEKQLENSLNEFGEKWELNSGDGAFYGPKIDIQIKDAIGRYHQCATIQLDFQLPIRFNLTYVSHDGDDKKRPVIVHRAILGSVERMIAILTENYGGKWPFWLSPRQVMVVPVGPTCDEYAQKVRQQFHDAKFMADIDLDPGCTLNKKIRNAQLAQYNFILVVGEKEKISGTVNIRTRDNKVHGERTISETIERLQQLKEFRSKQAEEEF

HUVECs = assay: Quantitative RT-PCR of TARS mRNA; type: cell-based, human; settings: HUVECs exposed to 50 ng/ml
Description: Total RNA was extracted from cells using the RNeasy column protocol and cDNA was generated using an Omniscript reverse transcriptase assay according to the manufacturer's instructions (Qiagen, Frederick, Md.). Primers and probes for TARS and β2-microglobulin were Assays-on-Demand (Applied Biosystems, [Life Technologies, Carlsbad, Calif.]). RT-qPCR was performed using an ABI prism 7700 Sequence Detection System (Applied Biosystems). The relative quantity of mRNA level was determined using the comparative CT (ΔΔCT) method using β2-microglobulin to normalize mRNA level (Cassavaugh, Hale et al. 2011).

TARS [2] = target: T1, TARS; assay: Ap4A formation assay (TLC, [α-32P]-ATP); type: biochemical; set-up: His6 (N); made in house; host or cells: E. coli Rosetta 2 (DE3)pLysS, plasmid pET28a hctThrRS; settings: 5 μM enzyme, 2 mM threonine, 2 mM ATP
TARS [3] = target: T1, TARS; assay: Ap4G formation assay (TLC, [α-32P]-GTP); type: biochemical; set-up: His6 (N); made in house; host or cells: E. coli Rosetta 2 (DE3)pLysS, plasmid pET28a hctThrRS; settings: 2 mM ATP, 2 mM threonine, 2 mM GTP
[4] = system: chorioallantoic membrane (CAM) of chicken embryos; assay: Chick chorioallantoic membrane (CAM) assay; type: in vivo; settings: for CAM vessel formation / vascularity, effect of applied synthetase: purified protein applied daily to gelfoam sponge, 72 h
Description: Chick Chorioallantoic Membrane Assay—
Fertilized chicken eggs (Sunrise Farms, Catskill, N.Y.) day 1-2 post-laying were incubated in a humidified incubator at 37° C. for 72 h. Cleaned eggs were cracked and plated in a sterile 10 cm^2 tissue culture-treated dish and incubated at 37° C. for another 7 days. On developmental day 10, 1 mm^3 sterile gelatin sponge pieces (Surgifoam®; Johnson & Johnson Wound Management, Somerville, N.J.) were placed within the outer one-third of the membrane between large vessels. […] All compounds were applied in 10 μl to the CAM every 24 h for 72 h. Images were taken using a Leica MZ6 stereomicroscope every 24 h. Compounds were scored according to a modified version of Intensity Scoring as previously described (Ribatti, Nico et al. 2006). Briefly, each experimental condition was given a blinded score from 0-5 based on the change in the extent of vessel convergence and formation in proximity to the sponge from day 0 to day 3. Total score is averaged individual experimental condition scores from at least 15 replicates.
Fertilized chicken embryos were cultured ex-ova and, starting at developmental day 10, agents were applied daily to gelfoam sponges on the CAM. Images were recorded daily over 72 h and scored blindly according to a modified version Intensity Scoring as previously described (Ribatti, Nico et al. 2006). Additional details regarding methods are provided in the Methods and Materials section of Example 1.

tRNAThr = assay: Steady state aminoacylation assay; type: biochemical, E. coli or human; settings: purified recombinant protein
Description: Steady State Aminoacylation Assay—
The aminoacylation activities of the TARS constructs were determined using modifications to established procedures (Francklyn et al 2008). Briefly, reaction mixtures consisted of 20 mM Tris-HCl pH 8.0, 100 mM KCl, 10 mM MgCl2, 1 mM dithiothreitol, 2 mM ATP, 2.5 U pyrophosphatase (Roche), 80 μM threonine, 20 μM [14C]-threonine, and 5 μM of E. coli or human tRNAThr. Reactions were initiated with the addition of 0.25-0.75 μM TARS and run at 37° C. Aliquots were taken at varying time points and spotted onto Whatmann 3MM paper filters pre-soaked in 5% trichloroacetic acid (TCA). Upon completion, the filters were washed 3 times in excess TCA, once in 95% ethanol, and dried under a heating lamp. The formation of Thr-tRNAThr was detected by scintillation counter and the activity determined by linear regression of threonyl-tRNAThr formed per active site per unit time.

[5] = substrate added to GTPase reaction

## Nc1ncnc2c1ncn2[C@@H]1O[C@H](COP(=O)(O)OP(=O)(O)OP(=O)(O)O)[C@@H](O)[C@H]1O [ATP]
TARS [1]; [5]
  decrease in TARS GTPase activity: 77%

## C[C@@H](O)[C@H](N)C(=O)O [threonine]
TARS [1]; [5]
  increase in TARS GTPase activity: 26%

## TNF-α
HUVECs
  TARS mRNA level: neither VEGF nor TNF-α induced an increase; also recorded: do not induce TARS transcription

## VEGF
HUVECs
  TARS mRNA level: neither VEGF nor TNF-α induced an increase; also recorded: do not induce TARS transcription

B1: E. coli ThrRS: bacterial (E. coli) threonyl-tRNA synthetase (protein, UniProt P0A8M3 1-642, looked up)
Threonine--tRNA ligase: MPVITLPDGSQRHYDHAVSPMDVALDIGPGLAKACIAGRVNGELVDACDLIENDAQLSIITAKDEEGLEIIRHSCAHLLGHAIKQLWPHTKMAIGPVIDNGFYYDVDLDRTLTQEDVEALEKRMHELAEKNYDVIKKKVSWHEARETFANRGESYKVSILDENIAHDDKPGLYFHEEYVDMCRGPHVPNMRFCHHFKLMKTAGAYWRGDSNNKMLQRIYGTAWADKKALNAYLQRLEEAAKRDHRKIGKQLDLYHMQEEAPGMVFWHNDGWTIFRELEVFVRSKLKEYQYQEVKGPFMMDRVLWEKTGHWDNYKDAMFTTSSENREYCIKPMNCPGHVQIFNQGLKSYRDLPLRMAEFGSCHRNEPSGSLHGLMRVRGFTQDDAHIFCTEEQIRDEVNGCIRLVYDMYSTFGFEKIVVKLSTRPEKRIGSDEMWDRAEADLAVALEENNIPFEYQLGEGAFYGPKIEFTLYDCLDRAWQCGTVQLDFSLPSRLSASYVGEDNERKVPVMIHRAILGSMERFIGILTEEFAGFFPTWLAPVQVVIMNITDSQSEYVNELTQKLSNAGIRVKADLRNEKIGFKIREHTLRRVPYMLVCGDKEVESGKVAVRTRRGKDLGSMDVNEVIEKLQQEIRSRSLKQLEE
TARS [2]
  Ap4A production rate: 0.5612 Ap4A/active site/min
TARS [3]
  Ap4G formation rate: 0.5612 Ap4G/active site/min
TARS [1]; 2 mM GTP
  GTP hydrolysis rate: not

B2: L567V TARS: BC194-resistant (borrelidin-resistant) L567V mutant of human TARS (protein, listed as Homo sapiens)
chain: MFEEKASSPSGKMGGEEKPIGAGEEKQKEGGKKKNKEGSGDGGRAELNPWPEYIYTRLEMYNILKAEHDSILAEKAEKDSKPIKVTLPDGKQVDAESWKTTPYQIACGISQGLADNTVIAKVNNVVWDLDRPLEEDCTLELLKFEDEEAQAVYWHSSAHIMGEAMERVYGGCLCYGPPIENGFYYDMYLEEGGVSSNDFSSLEALCKKIIKEKQAFERLEVKKETLLAMFKYNKFKCRILNEKVNTPTTTVYRCGPLIDLCRGPHVRHTGKIKALKIHKNSSTYWEGKADMETLQRIYGISFPDPKMLKEWEKFQEEAKNRDHRKIGRDQELYFFHELSPGSCFFLPKGAYIYNALIEFIRSEYRKRGFQEVVTPNIFNSRLWMTSGHWQHYSENMFSFEVEKELFALKPMNCPGHCLMFDHRPRSWRELPLRLADFGVLHRNELSGALTGLTRVRRFQQDDAHIFCAMEQIEDEIKGCLDFLRTVYSVFGFSFKLNLSTRPEKFLGDIEVWDQAEKQLENSLNEFGEKWELNSGDGAFYGPKIDIQIKDAIGRYHQCATIQLDFQVPIRFNLTYVSHDGDDKKRPVIVHRAILGSVERMIAILTENYGGKWPFWLSPRQVMVVPVGPTCDEYAQKVRQQFHDAKFMADIDLDPGCTLNKKIRNAQLAQYNFILVVGEKEKISGTVNIRTRDNKVHGERTISETIERLQQLKEFRSKQAEEEF
[4]; protein plus BC194 applied to CAM
  sensitivity of synthetase-induced CAM angiogenesis to BC194: not inhibited
[4]
  CAM vessel formation / vascularity, effect of applied synthetase: stimulated vessel formation
tRNAThr
  aminoacylation activity: not compromised

B3: R442A TARS: aminoacylation-deficient human TARS mutant; essential catalytic arginine 442 exchanged for alanine (protein, listed as Homo sapiens)
chain: MFEEKASSPSGKMGGEEKPIGAGEEKQKEGGKKKNKEGSGDGGRAELNPWPEYIYTRLEMYNILKAEHDSILAEKAEKDSKPIKVTLPDGKQVDAESWKTTPYQIACGISQGLADNTVIAKVNNVVWDLDRPLEEDCTLELLKFEDEEAQAVYWHSSAHIMGEAMERVYGGCLCYGPPIENGFYYDMYLEEGGVSSNDFSSLEALCKKIIKEKQAFERLEVKKETLLAMFKYNKFKCRILNEKVNTPTTTVYRCGPLIDLCRGPHVRHTGKIKALKIHKNSSTYWEGKADMETLQRIYGISFPDPKMLKEWEKFQEEAKNRDHRKIGRDQELYFFHELSPGSCFFLPKGAYIYNALIEFIRSEYRKRGFQEVVTPNIFNSRLWMTSGHWQHYSENMFSFEVEKELFALKPMNCPGHCLMFDHRPRSWRELPLRLADFGVLHANELSGALTGLTRVRRFQQDDAHIFCAMEQIEDEIKGCLDFLRTVYSVFGFSFKLNLSTRPEKFLGDIEVWDQAEKQLENSLNEFGEKWELNSGDGAFYGPKIDIQIKDAIGRYHQCATIQLDFQLPIRFNLTYVSHDGDDKKRPVIVHRAILGSVERMIAILTENYGGKWPFWLSPRQVMVVPVGPTCDEYAQKVRQQFHDAKFMADIDLDPGCTLNKKIRNAQLAQYNFILVVGEKEKISGTVNIRTRDNKVHGERTISETIERLQQLKEFRSKQAEEEF
[4]
  CAM vessel formation / vascularity, effect of applied synthetase: virtually indistinguishable from wild type
tRNAThr
  aminoacylation activity: essentially no aminoacylation activity; also recorded: virtually negligible aminoacylation function
TARS [2]
  Ap4A production rate: no appreciable activity; also recorded: blocked
TARS [3]
  Ap4G formation rate: not catalyzed; also recorded: blocked
